B4: pC-Tir, C-Tir (residues 388-550 of EPEC O127:H6 Tir) phosphorylated by Fyn at four tyrosines (domain or fragment)
chain: RRNQPAEQTTTTTTHTVVQQQTGGNTPAQGGTDATRAEDASLNRRDSQGSVASTHWSDSSSEVVNPYAEVGGARNSLSAHQPEEHIYDEVAADPGYSVIQNFSGSGPVTGRLIGTPGQGIQSTYALLANSGGLRLGMGGLTSGGESAVSSVNAAPTPGPVRFV
modifications: phosphotyrosine at Y454, Y474, Y483 and Y511

Experiments:
[1] = target: T1, pC-Tir, C-Tir (residues 388-550 of EPEC O127:H6 Tir) phosphorylated by Fyn at four tyrosines (Enteropathogenic E. coli (EPEC) O127:H6, UniProt B7UM99 388-550, phosphotyrosine at Y454, Y474, Y483 and Y511); experiment: NMR titration; 15N-labelled pC-Tir (95 uM) titrated with 0.25, 0.5, 0.75, 1, 2, 4 and 6 equivalents of unlabelled C-SH2; [15N-1H]-HSQC peak intensities clustered by phosphorylation site and fitted globally to a 1:1 model; apparent KD for each site; details: both partners purified
T1 construct: Translocated intimin receptor Tir, EPEC O127:H6, residues 388-550; Same construct as m4, phosphorylated in vitro; 15N-labelled for the NMR titration; also called 4-fold phosphorylated state; phosphorylated C-Tir; not shown: Trx, N-terminal, cleaved; His6, N-terminal, cleaved; Strep-tag, C-terminal, kept
T1 sequence: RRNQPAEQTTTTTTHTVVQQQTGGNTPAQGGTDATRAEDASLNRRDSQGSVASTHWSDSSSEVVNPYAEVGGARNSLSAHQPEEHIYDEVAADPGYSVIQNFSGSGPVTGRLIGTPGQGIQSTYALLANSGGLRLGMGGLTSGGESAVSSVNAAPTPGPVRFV

[2] = target: T2, C-Tir, C-terminal cytosolic region of Tir of EPEC O127:H6, residues 388-550, unphosphorylated (Enteropathogenic E. coli (EPEC) O127:H6, UniProt B7UM99 388-550); experiment: NMR titration; unlabelled C-SH2 added to 15N-labelled unphosphorylated C-Tir (2.0 and 8.0 equivalents shown); [15N-1H]-HSQC peak intensities of A512-A515 fitted globally to a 1:1 model; apparent KD; details: both partners purified
T2 construct: Translocated intimin receptor Tir, EPEC O127:H6, residues 388-550; Trx-His6 tag cleaved on-column with HRV-3C protease; 15N-labelled for the NMR titration; also called unphosphorylated C-Tir; Tir C-terminus; source: E. coli BL21 Star (DE3) pLysS, lysed by boiling, purified (Strep-Tactin XT, Superdex 200); not shown: Trx, N-terminal, cleaved; His6, N-terminal, cleaved; Strep-tag, C-terminal, kept
T2 sequence: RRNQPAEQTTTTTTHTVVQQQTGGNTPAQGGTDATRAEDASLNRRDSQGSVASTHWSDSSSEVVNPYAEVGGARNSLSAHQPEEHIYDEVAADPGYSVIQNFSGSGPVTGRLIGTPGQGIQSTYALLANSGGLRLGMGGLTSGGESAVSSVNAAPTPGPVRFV

[3] = target: B4; experiment: NMR; site pY454 (apparent local Kd)
[4] = target: B4; experiment: NMR; site pY511 (apparent local Kd)
[5] = target: B4; experiment: NMR; site pY474 (apparent local Kd)
[6] = target: B4; experiment: NMR; site pY483 (apparent local Kd)
[7] = target: the molecule itself; experiment: SEC-SAXS; synchrotron SEC-SAXS, B21 beamline, Shodex KW403-4F column; 100 mM Tris-HCl pH 8.0, 150 mM NaCl, 2 mM DTT, 1 mM EDTA; 50 uL of 10.0-25.0 mg/mL injected; dimeric single-peak region
[8] = target: T3, C-terminal SH2 domain (C-SH2) of human phosphatase SHP-1, residues 101-217 (human, UniProt P29350 101-217); experiment: NMR; site pY511, apparent
T3 chain: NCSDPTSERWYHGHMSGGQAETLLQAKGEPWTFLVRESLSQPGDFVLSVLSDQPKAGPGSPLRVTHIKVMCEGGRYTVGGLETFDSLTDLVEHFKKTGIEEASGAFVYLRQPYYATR

[9] = target: T3, C-terminal SH2 domain (C-SH2) of human …; experiment: NMR; site pY474, apparent
[10] = target: T3, C-terminal SH2 domain (C-SH2) of human …; experiment: NMR; site pY454, apparent
[11] = target: T3, C-terminal SH2 domain (C-SH2) of human …; experiment: NMR; site pY483, apparent

B1: C-terminal SH2 domain (C-SH2) of human phosphatase SHP-1, residues 101-217 (domain or fragment, UniProt P29350 101-217, looked up)
chain: NCSDPTSERWYHGHMSGGQAETLLQAKGEPWTFLVRESLSQPGDFVLSVLSDQPKAGPGSPLRVTHIKVMCEGGRYTVGGLETFDSLTDLVEHFKKTGIEEASGAFVYLRQPYYATR
notes: Tyrosine-protein phosphatase SHP-1, human, C-terminal SH2 domain, residues 101-217; PCR-amplified from the vector pGEX SHP-1(NC)-SH2; Trx-His6 tag cleaved on-column with HRV-3C protease; unlabelled in the NMR titrations; also called SHP-1 C-SH2 domain; source: E. coli BL21 Star (DE3) pLysS, purified (Strep-Tactin XT, Superdex 200); not shown: Trx, N-terminal, cleaved; His6, N-terminal, cleaved
In the case of B1, the “fold enhancement of binding at the Y511 site against unphosphorylated C-Tir” value [1] is reported as ~10 fold, the Kd [2] is reported as ~68.5 µM and the Kd [3] is reported as 86.1 µM. The Kd [4] was 6.94 µM, the Kd [5] was 2.66 µM and the Kd [6] was 9.25 µM.

B2: NS-Tir, N-terminal structured region of Tir (N-Tir 61-200) of EPEC O127:H6 (domain or fragment)
chain: VDSRDIPGLPTNPSRLAAATSETCLLGGFEVLHDKGPLDILNTQIGPSAFRVEVQADGTHAAIGEKNGLEVSVTLSPQEWSSLQSIDTEGKNRFVFTGGRGGSGHPMVTVASDIAEARTKILAKLDPDNHGGRQPKDVDT
notes: Translocated intimin receptor Tir, EPEC O127:H6, residues 61-200; Trx-His6 tag cleaved in vivo by co-expressed TEV protease; source: E. coli BL21 Star (DE3) pLysS, purified (Strep-Tactin XT, Superdex 200); not shown: Trx, N-terminal, cleaved; His6, N-terminal, cleaved; Strep-tag, C-terminal, kept
B2 was tested, and the “stoichiometry N” value [7] was 2.

B3: N-Tir, N-terminal cytosolic region of the translocated intimin receptor (Tir) of EPEC O127:H6, residues 1-233 (domain or fragment)
chain: MPIGNLGNNVNGNHLIPPAPPLPSQTDGAARGGTGHLISSTGALGSRSLFSPLRNSMADSVDSRDIPGLPTNPSRLAAATSETCLLGGFEVLHDKGPLDILNTQIGPSAFRVEVQADGTHAAIGEKNGLEVSVTLSPQEWSSLQSIDTEGKNRFVFTGGRGGSGHPMVTVASDIAEARTKILAKLDPDNHGGRQPKDVDTRSVGVGSASGIDDGVVSETHTSTTNSSVRSDPK
notes: Translocated intimin receptor Tir, EPEC O127:H6, residues 1-233, from a synthetic E. coli codon-optimised gene of the full-length protein; Trx-His6 tag cleaved in vivo by co-expressed TEV protease; also called Tir's N-terminal tail; source: E. coli BL21 Star (DE3) pLysS, purified (Strep-Tactin XT, Superdex 200); not shown: Trx, N-terminal, cleaved; His6, N-terminal, cleaved; Strep-tag, …
In the case of B3, the “stoichiometry N” value [7] is reported as 2.

B4 was tested, and the Kd [8] was 6.94 µM, the Kd [9] was 2.66 µM and the Kd [10] was 86.1 µM. It also gave a Kd [11] of 9.25 µM.
